Data set [1] deals with MBP-EcMinC-Aahelix3 (E. coli | A. aeolicus) (UniProt P18196). Briefly: SEC-MALS; MALLS and SEC (Fig. S4). (In general: Size exclusion chromatography separates by hydrodynamic size, large species first.)
Data set [2] concerns the molecule itself. Put plainly: crystal structure; hanging-drop vapor diffusion at 20 °C, 0.1 M Tris-HCl pH 7.2, 0.44 M sodium/potassium tartrate; 3.0 Å; dimer in the asymmetric unit.
Data set [3] deals with the molecule itself. Briefly: SEC-MALS; MALLS and SEC (Fig. S4).

The term stoichiometry N denotes a count of units in the complex or per binding partner.

Turning to “MBP-EcMinC-Aahelix3 (from UniProt P18196 1-231; O67034 82-201)”, the stoichiometry N in data set [1] is 2.

B1: C-terminal domain of MinC from Escherichia coli (EcMinCCTD) (domain or fragment, E. coli)
chain: PVTKTRLIDTPVRSGQRIYAPQCDLIVTSHVSAGAELIADGNIHVYGMMRGRALAGASGDRETQIFCTNLMAELVSIAGEYWLSDQIPAEFYGKAARLQLVENALTVQPLN
notes: MinC, E. coli K12; C-terminal domain, a degradation fragment of ~13 kD of full-length MinC-6xHis; residues 122-231 are named for the superposition with TmMinCCTD; Crystals grew from full-length MinC-6xHis (pET22b-MinC) that was degraded over 3-6 weeks; source: E. coli BL21(DE3), full-length MinC-6xHis purified (Ni-agarose, SEC); degraded to the C-terminal domain during crystallization; not shown: …
Regarding B1, the binding result in data set [2] was “binds”.

B2: MBP-EcMinC (natural protein, E. coli, UniProt P18196 1-231, looked up)
chain: MSNTPIELKGSSFTLSVVHLHEAEPKVIHQALEDKIAQAPAFLKHAPVVLNVSALEDPVNWSAMHKAVSATGLRVIGVSGCKDAQLKAEIEKMGLPILTEGKEKAPRPAPTPQAPAQNTTPVTKTRLIDTPVRSGQRIYAPQCDLIVTSHVSAGAELIADGNIHVYGMMRGRALAGASGDRETQIFCTNLMAELVSIAGEYWLSDQIPAEFYGKAARLQLVENALTVQPLN
notes: called full-length EcMinC; Modified pET-28b with MBP in place of the N-terminal His-tag; source: E. coli BL21(DE3), purified (Ni-agarose, SEC); not shown: MBP, N-terminal, kept
Turning to B2, the “stoichiometry N” value in data set [3] worked out at 2.

(Values after publication PMC5548801, “Characterization of C-terminal structure of MinC and its implication in evolution of bacterial cell division” (Scientific Reports, 2017).)
